Results taken from article PMC12808100, “The non-catalytic DNA polymerase ε subunit is an NPF motif recognition protein” (Nature Communications, 2025).

B1: PITPNA (protein, UniProt Q00169 2-270, looked up)
Phosphatidylinositol transfer …: VLLKEYRVILPVSVDEYQVGQLYSVAEASKNETGGGEGVEVLVNEPYEKDGEKGQYTHKIYHLQSKVPTFVRMLAPEGALNIHEKAWNAYPYCRTVITNEYMKEDFLIKIETWHKPDLGTQENVHKLEPEAWKHVEAVYIDIADRSQVLSKDYKAEEDPAKFKSIKTGRGPLGPNWKQELVNQKDCPYMCAYKLVTVKFKWWGLQNKVENFIHKQERRLFTNFHRQLFCWLDKWVDLTMDDIRRMEEETKRQLDEMRQKDPVKGMTADD
B2: PNMA2 (protein, UniProt Q9UL42 2-364, looked up)
Paraneoplastic antigen Ma2: ALALLEDWCRIMSVDEQKSLMVTGIPADFEEAEIQEVLQETLKSLGRYRLLGKIFRKQENANAVLLELLEDTDVSAIPSEVQGKGGVWKVIFKTPNQDTEFLERLNLFLEKEGQTVSGMFRALGQEGVSPATVPCISPELLAHLLGQAMAHAPQPLLPMRYRKLRVFSGSAVPAPEEESFEVWLEQATEIVKEWPVTEAEKKRWLAESLRGPALDLMHIVQADNPSISVEECLEAFKQVFGSLESRRTAQVRYLKTYQEEGEKVSAYVLRLETLLRRAVEKRAIPRRIADQVRLEQVMAGATLNQMLWCRLRELKDQGPPPSFLELMKVIREEEEEEASFENESIEEPEERDGYGRWNHEGDD
B3: DOK1 (protein, UniProt Q99704 1-481, looked up)
Docking protein 1: MDGAVMEGPLFLQSQRFGTKRWRKTWAVLYPASPHGVARLEFFDHKGSSSGGGRGSSRRLDCKVIRLAECVSVAPVTVETPPEPGATAFRLDTAQRSHLLAADAPSSAAWVQTLCRNAFPKGSWTLAPTDNPPKLSALEMLENSLYSPTWEGSQFWVTVQRTEAAERCGLHGSYVLRVEAERLTLLTVGAQSQILEPLLSWPYTLLRRYGRDKVMFSFEAGRRCPSGPGTFTFQTAQGNDIFQAVETAIHRQKAQGKAGQGHDVLRADSHEGEVAEGKLPSPPGPQELLDSPPALYAEPLDSLRIAPCPSQDSLYSDPLDSTSAQAGEGVQRKKPLYWDLYEHAQQQLLKAKLTDPKEDPIYDEPEGLAPVPPQGLYDLPREPKDAWWCQARVKEEGYELPYNPATDDYAVPPPRSTKPLLAPKPQGPAFPEPGTATGSGIKSHNSALYSQVQKSGASGSWDCGLSRVGTDKTGVKSEGST
B4: FBXO45 (protein, UniProt P0C2W1 2-286, looked up)
F-box/SPRY domain-containing …: AAPAPGAGAASGGAGCSGGGAGAGAGSGSGAAGAGGRLPSRVLELVFSYLELSELRSCALVCKHWYRCLHGDENSEVWRSLCARSLAEEALRTDILCNLPSYKAKIRAFQHAFSTNDCSRNVYIKKNGFTLHRNPIAQSTDGARTKIGFSEGRHAWEVWWEGPLGTVAVIGIATKRAPMQCQGYVALLGSDDQSWGWNLVDNNLLHNGEVNGSFPQCNNAPKYQIGERIRVILDMEDKTLAFERGYEFLGVAFRGLPKVCLYPAVSAVYGNTEVTLVYLGKPLDG
B5: endogenous DONSON: endogenous DONSON protein in Jurkat extract (protein)
chain: MALSVPGYSPGFRKPPEVVRLRRKRARSRGAAASPPRELTEPAARRAALVAGLPLRPFPAAGGRGGGSGGGPAAARRNPFARLDNRPRVAAEPPDGPAREQPEAPVPFLDSNQENDLLWEEKFPERTTVTELPQTSHVSFSEPDIPSSKSTELPVDWSIKTRLLFTSSQPFTWADHLKAQEEAQGLVQHCRATEVTLPKSIQDPKLSSELRCTFQQSLIYWLHPALSWLPLFPRIGADRKMAGKTSPWSNDATLQHVLMSDWSVSFTSLYNLLKTKLCPYFYVCTYQFTVLFRAAGLAGSDLITALISPTTRGLREAMRNEGIEFSLPLIKESGHKKETASGTSLGYGEEQAISDEDEEESFSWLEEMGVQDKIKKPDILSIKLRKEKHEVQMDHRPESVVLVKGINTFTLLNFLINSKSLVATSGPQAGLPPTLLSPVAFRGATMQMLKARSVNVKTQALSGYRDQFSLEITGPIMPHSLHSLTMLLKSSQSGSFSAVLYPHEPTAVFNICLQMDKVLDMEVVHKELTNCGLHPNTLEQLSQIPLLGKSSLRNVVLRDYIYNWRS
B6: LMO4 (protein, UniProt P61968 1-165, looked up)
LIM domain transcription …: MVNPGSSSQPPPVTAGSLSWKRCAGCGGKIADRFLLYAMDSYWHSRCLKCSCCQAQLGDIGTSCYTKSGMILCRNDYIRLFGNSGACSACGQSIPASELVMRAQGNVYHLKCFTCSTCRNRLVPGDRFHYINGSLFCEHDRPTALINGHLNSLQSNPLLPDQKVC
B7: CAPN6 (protein, UniProt Q9Y6Q1 1-641, looked up)
Calpain-6: MGPPLKLFKNQKYQELKQECIKDSRLFCDPTFLPENDSLFYNRLLPGKVVWKRPQDICDDPHLIVGNISNHQLTQGRLGHKPMVSAFSCLAVQESHWTKTIPNHKEQEWDPQKTEKYAGIFHFRFWHFGEWTEVVIDDLLPTINGDLVFSFSTSMNEFWNALLEKAYAKLLGCYEALDGLTITDIIVDFTGTLAETVDMQKGRYTELVEEKYKLFGELYKTFTKGGLICCSIESPNQEEQEVETDWGLLKGHTYTMTDIRKIRLGERLVEVFSAEKVYMVRLRNPLGRQEWSGPWSEISEEWQQLTASDRKNLGLVMSDDGEFWMSLEDFCRNFHKLNVCRNVNNPIFGRKELESVLGCWTVDDDPLMNRSGGCYNNRDTFLQNPQYIFTVPEDGHKVIMSLQQKDLRTYRRMGRPDNYIIGFELFKVEMNRKFRLHHLYIQERAGTSTYIDTRTVFLSKYLKKGNYVLVPTMFQHGRTSEFLLRIFSEVPVQLRELTLDMPKMSCWNLARGYPKVVTQITVHSAEDLEKKYANETVNPYLVIKCGKEEVRSPVQKNTVHAIFDTQAIFYRRTTDIPIIVQVWNSRKFCDQFLGQVTLDADPSDCRDLKSLYLRKKGGPTAKVKQGHISFKVISSDDLTEL
B8: LDB1 (protein, UniProt Q86U70 2-411, looked up)
LIM domain-binding protein 1: SVGCACPGCSSKSFKLYSPKEPPNGNAFPPFHPGTMLDRDVGPTPMYPPTYLEPGIGRHTPYGNQTDYRIFELNKRLQNWTEECDNLWWDAFTTEFFEDDAMLTITFCLEDGPKRYTIGRTLIPRYFRSIFEGGATELYYVLKHPKEAFHSNFVSLDCDQGSMVTQHGKPMFTQVCVEGRLYLEFMFDDMMRIKTWHFSIRQHRELIPRSILAMHAQDPQMLDQLSKNITRCGLSNSTLNYLRLCVILEPMQELMSRHKTYSLSPRDCLKTCLFQKWQRMVAPPAEPTRQQPSKRRKRKMSGGSTMSSGGGNTNNSNSKKKSPASTFALSSQVPDVMVVGEPTLMGGEFGDEDERLITRLENTQFDAANGIDDEDSFNNSPALGANSPWNSKPPSSQESKSENPTSQASQ
B9: GLB1 (protein, UniProt P16278 29-677, looked up)
Beta-galactosidase: QRMFEIDYSRDSFLKDGQPFRYISGSIHYSRVPRFYWKDRLLKMKMAGLNAIQTYVPWNFHEPWPGQYQFSEDHDVEYFLRLAHELGLLVILRPGPYICAEWEMGGLPAWLLEKESILLRSSDPDYLAAVDKWLGVLLPKMKPLLYQNGGPVITVQVENEYGSYFACDFDYLRFLQKRFRHHLGDDVVLFTTDGAHKTFLKCGALQGLYTTVDFGTGSNITDAFLSQRKCEPKGPLINSEFYTGWLDHWGQPHSTIKTEAVASSLYDILARGASVNLYMFIGGTNFAYWNGANSPYAAQPTSYDYDAPLSEAGDLTEKYFALRNIIQKFEKVPEGPIPPSTPKFAYGKVTLEKLKTVGAALDILCPSGPIKSLYPLTFIQVKQHYGFVLYRTTLPQDCSNPAPLSSPLNGVHDRAYVAVDGIPQGVLERNNVITLNITGKAGATLDLLVENMGRVNYGAYINDFKGLVSNLTLSSNILTDWTIFPLDTEDAVRSHLGGWGHRDSGHHDEAWAHNSSNYTLPAFYMGNFSIPSGIPDLPQDTFIQFPGWTKGQVWINGFNLGRYWPARGPQLTLFVPQHILMTSAPNTITVLELEWAPCSSDDPELCAVTFVDRPVIGSSVTYDHPSKPVEKRLMPPPPQKNKDSWLDHV
B10: FBXO3 (protein, UniProt Q9UK99 1-471, looked up)
F-box only protein 3: MAAMETETAPLTLESLPTDPLLLILSFLDYRDLINCCYVSRRLSQLSSHDPLWRRHCKKYWLISEEEKTQKNQCWKSLFIDTYSDVGRYIDHYAAIKKAWDDLKKYLEPRCPRMVLSLKEGAREEDLDAVEAQIGCKLPDDYRCSYRIHNGQKLVVPGLLGSMALSNHYRSEDLLDVDTAAGGFQQRQGLKYCLPLTFCIHTGLSQYIAVEAAEGRNKNEVFYQCPDQMARNPAAIDMFIIGATFTDWFTSYVKNVVSGGFPIIRDQIFRYVHDPECVATTGDITVSVSTSFLPELSSVHPPHYFFTYRIRIEMSKDALPEKACQLDSRYWRITNAKGDVEEVQGPGVVGEFPIISPGRVYEYTSCTTFSTTSGYMEGYYTFHFLYFKDKIFNVAIPRFHMACPTFRVSIARLEMGPDEYEEMEEEEEEEEEEDEDDDSADMDESDEDDEEERRRRVFDVPIRRRRCSRLF

Biological target: His6-avi-MBP-tagged POLE2
Test: Single-point nHU-MS with recombinant His6-avi-MBP-POLE2 bait, Jurkat extract
Format: binding, human
Conditions: for pKapp_sign: significant apparent affinity of endogenous prey protein for POLE2 bait, single-point nHU-MS, Figure S11
Excerpt: So far, our study only focused on a few hand-picked NPF motifs and studied them as short synthetic peptides. However, many other proteins may be present in the proteome that could bind to POLE2 and their putative NPF motifs are embedded in their natural structures that can greatly affect their binding properties. To investigate interactions between POLE2 and intact, full length proteins proteome-wide, we used nHU-MS experiments with recombinant His6-avi-MBP-tagged POLE2 as bait and purified His6-avi-MBP as a control. Even though we are aware that this recombinant POLE2 may bind to NPF motifs with a somewhat altered affinity, we assumed that this would affect all NPF motif-mediated interactions equally, allowing an unbiased affinity ranking of all identified partners. Single point nHU measurements were performed at 26 μM POLE2 concentration and the recovered supernatant was measured by label free proteomic MS measurements (Fig. 3A, Supplementary Figs. 8A, 9, Supplementary Data 1).
Single-point nHU experiments with protein baits were carried out nearly identically with two key modifications. First, the resin saturation step was carried out by mixing 50 μl streptavidin resin with 0.5−1 ml 50 μM biotinylated protein solution and the mixture was incubated for 1.5 h at 4 °C with constant agitation. Second, instead of using estimated bait concentrations, we measured it experimentally. An extra aliquot of resin stock was prepared alongside the nHU samples that were identically processed that were used to eluate the immobilized proteins under harsh conditions, in order to experimentally quantify the Cbait by using densitometry of Coomassie stained SDS-PAGE that included a protein calibration series. For this, 50 μl bait-saturated resin aliquots were mixed with 200 μl 4x Laemmli Sample Buffer (120 mM Tris-HCl pH 7, 8% SDS, 100 mM DTT, 32% glycerol, 0.004% bromphenol blue, 1% β-mercaptoethanol), instead of cell extract. After 15 min incubation at 95 °C, these samples were analyzed by SDS-PAGE using protein calibration standard, made from recombinant MBP. Densitometry was carried out after Coomassie staining on raw Tif images by using Fiji ImageJ 1.53c and experimental bait concentration were determined by adjusting for molecular weight differences between MBP and MBP-POLE2 constructs.
Samples were digested overnight at 37 °C.

Row | Molecule | pKapp_sign | Kd (from the depletion of one peptide, single quantification, read-out: dissociation constant) [µM] | depletion (one DONSON peptide, single quantification)
1 | B1 | 4.604 |  | 
2 | B2 | 5.251 |  | 
3 | B3 | 4.232 |  | 
4 | B4 | 4.883 |  | 
5 | B5 |  | 92 | approximately 22%
6 | B6 | 4.815 |  | 
7 | B7 | 5.695 |  | 
8 | B8 | 4.689 |  | 
9 | B9 | 4.2 |  | 
10 | B10 | 4.421 |  | 
